In patent US9931415B2, “Pyrrolobenzodiazepine-antibody conjugates” (ADC THERAPEUTICS S.A., priority 2012, dated 2018):

Assays:
[1] = molecular target: T1, CD25 on Karpas299 cells (Homo sapiens, UniProt P01589); assay: Binding of HuMax-TAC to CD25 +ve cell lines by flow cytometry (Karpas299)
T1 construct: Surface CD25 expression on Karpas and SU-DHL-1 was determined by flow cytometry; endogenous in cells; host or cells: Karpas299 and SU-DHL-1 cell lines
T1 sequence (P01589 22-272): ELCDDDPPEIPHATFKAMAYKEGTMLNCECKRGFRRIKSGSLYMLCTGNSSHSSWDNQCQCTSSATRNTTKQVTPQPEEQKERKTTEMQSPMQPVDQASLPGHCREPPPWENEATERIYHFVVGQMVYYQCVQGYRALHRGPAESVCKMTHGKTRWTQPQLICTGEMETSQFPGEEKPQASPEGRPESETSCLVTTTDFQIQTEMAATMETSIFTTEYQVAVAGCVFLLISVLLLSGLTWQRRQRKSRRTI
Description: (§1) Karpas299 and SU-DHL-1 anaplastic large cell lymphoma (ALCL)-derived cell lines have been previously reported to express CD25 (2,3). To confirm their expression profile, CD25 surface expression was analyzed by flow cytometry. HuMax-TAC was used as a CD25-specific antibody. B12 was used as a negative control antibody.
(§2) Surface CD25 expression on Karpas and SU-DHL-1 was determined by flow cytometry. Graphs represent the average of three (Karpas299) or four independent experiments (SU-DHL-1). EC50 values are reported in ng/ml.

[2] = molecular target: T2, CD25 on SU-DHL-1 cells (Homo sapiens, UniProt P01589); assay: Binding of HuMax-TAC to CD25 +ve cell lines by flow cytometry (SU-DHL-1)
T2 construct: endogenous in cells; host or cells: Karpas299 and SU-DHL-1 cell lines
T2 sequence (P01589 22-272): T1 sequence (P01589 22-272)
Description: as §1, §2

Substance: HuMax-TAC: anti-CD25 antibody comprising a VH domain of SEQ ID NO. 1 and a VL domain of SEQ ID NO. 2
- binding to cell surface CD25 (flow cytometry) [1]: specifically bound
- EC50 ([1]; flow cytometry, average of three experiments): 0.02021 µg/mL
- binding to cell surface CD25 (flow cytometry) [2]: specifically bound
- EC50 ([2]; flow cytometry, average of four experiments): 0.03406 µg/mL
